Assay results as given in patent US20160319016A1 (GOVERNMENT OF THE UNITED STATES OF AMERICA AS REPRESENTED …, published 2016).

Target: T1, CMG2 (UniProt P58335 34-489, limits assumed)
T1 construct: whole, on cells; also called ANTXR2; CHO/CMG2
Test: flow cytometry on CHO/CMG2 cells

binding result: no binding
B1: AF334 anti-TEM8 monoclonal antibody (antibody, V domains shown)
VH: QVKLEESGAELVRPGVSVKISCKGSGYTFTDYAMHWVKQSHAKSLEWIGVISTYFGDATYNQKFKGKATMTVDKSSSTAYMELARLTSEDSAIYYCAREDYVPFAYWGQGTLVTVSA
VL: DIVMTQTPPSVPVTPGESVSISCRSSKSLLHSNGNTYLYWFLQRPGQSPQLLIYRMSNLASGVPDRFSGSGSGTAFTLRISRVEAEDVGVYYCMQHLEYPFTFGSGTKLEIKR
